Measured values reported in the supplement of paper PMC10567573.

B1: RTP4 (parent)
chain: AFGWFRCSSCQRSWASAQVQILCH
B2: C10orf62 (parent)
chain: GHSHHSHHGHPSHQSHSLPNRRH

Variants of: B1
Assay: protein stability index of a GFP-peptide fusion (GPS, HEK-293T) (PSI 1-6); higher = more stable
Settings: c terminus: a fixed tail appended
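Also: lentivirally expressed fusions sorted by FACS into six bins by GFP to DsRed ratio, PSI derived from sequencing read proportions per bin multiplied by bin number.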

Variant	protein stability index
AFGWFRCSSCQRSWASAQVQILEH [C23E]	2.8
AFGWFRCSSCQRSWASAQVQILDH [C23D]	1.92
AFGWFRCSSCQRSWASAQVQILRH [C23R]	1.49
AFGWFRCSSCQRSWASAQVQILHH [C23H]	1.84
AFGWFRCSSCQRSWASAQVQILTH [C23T]	1.93
AFGWFRCSSCQRSWASAQVQILLH [C23L]	2.78
AFGWFRCSSCQRSWASAQVQILMH [C23M]	3.79
AFGWFRCSSCQRSWASAQVQILNH [C23N]	2.21
AFGWFRCSSCQRSWASAQVQILYH [C23Y]	2.81
AFGWFRCSSCQRSWASAQVQILSH [C23S]	1.8
AFGWFRCSSCQRSWASAQVQILPH [C23P]	2.83
AFGWFRCSSCQRSWASAQVQILQH [C23Q]	3.85
AFGWFRCSSCQRSWASAQVQILKH [C23K]	2.35
AFGWFRCSSCQRSWASAQVQILIH [C23I]	4.29
AFGWFRCSSCQRSWASAQVQILFH [C23F]	2.59
AFGWFRCSSCQRSWAAAQVQILCH [S16A]	2.73
AFGWFRCSSCQRSWANAQVQILCH [S16N]	2.77
AFGWFRCSSCQRSWARAQVQILCH [S16R]	2.79
AFGWFRCSSCQRSWAEAQVQILCH [S16E]	3.11
AFGWFRCSSCQRSWAKAQVQILCH [S16K]	2.9
AFGWFRCSSCQRSWAFAQVQILCH [S16F]	2.12
AFGWFRCSSCQRSWAIAQVQILCH [S16I]	2.64
AFGWFRCSSCQRSWAWAQVQILCH [S16W]	1.86
AFGWFRCSSCQRSWAHAQVQILCH [S16H]	3.4
AFGWFRCSSCQRSWAGAQVQILCH [S16G]	1.75
AFGWFRCSSCQRSWADAQVQILCH [S16D]	2.46

Variant	protein stability index
AFGWFRCSSCQRSWAYAQVQILCH [S16Y]	1.78
AFGWFRCSSCQRSWATAQVQILCH [S16T]	1.95
AFGWFRCSSCQRSWASAQVQITCH [L22T]	1.65
AFGWFRCSSCQRSWASAQVQIRCH [L22R]	1.61
AFGWFRCSSCQRSWASAQVQINCH [L22N]	2.66
AFGWFRCSSCQRSWASAQVQIDCH [L22D]	1.79
AFGWFRCSSCQRSWASAQVQIACH [L22A]	2.09
AFGWFRCSSCQRSWASAQVQIMCH [L22M]	1.32
AFGWFRCSSCQRSWASAQVQIHCH [L22H]	2.13
AFGWFRCSSCQRSWASAQVQICCH [L22C]	1.4
AFGWFRCSSCQRSWASAQVQIPCH [L22P]	3.05
AFGWFRCSSCQRSWASAQVQIWCH [L22W]	2.17
AFGWFRCSSCQRSWASAQVQIGCH [L22G]	1.41
AFGWFRCSSCQRSWASDQVQILCH [A17D]	3.07
AFGWFRCSSCQRSWASNQVQILCH [A17N]	1.65
AFGWFRCSSCQRSWASCQVQILCH [A17C]	2.38
AFGWFRCSSCQRSWASKQVQILCH [A17K]	3.13
AFGWFRCSSCQRSWASPQVQILCH [A17P]	2.21
AFGWFRCSSCQRSWASWQVQILCH [A17W]	2.94
AFGWFRCSSCQRSWASMQVQILCH [A17M]	1.86
AFGWFRCSSCQRSWASHQVQILCH [A17H]	2.31
AFGWFRCSSCQRSWASEQVQILCH [A17E]	2.93
AFGWFRCSSCQRSWASYQVQILCH [A17Y]	2.43
AFGWFRCSSCQRSWASVQVQILCH [A17V]	2.19
AFGWFRCSSCQRSWASIQVQILCH [A17I]	3.06
AFGWFRCSSCQRSWASAQTQILCH [V19T]	2.79

Variant	protein stability index
AFGWFRCSSCQRSWASAQEQILCH [V19E]	2.23
AFGWFRCSSCQRSWASAQIQILCH [V19I]	3.39
AFGWFRCSSCQRSWASAQYQILCH [V19Y]	3.2
AFGWFRCSSCQRSWASAQDQILCH [V19D]	1.52
AFGWFRCSSCQRSWASAQPQILCH [V19P]	1.35
AFGWFRCSSCQRSWASAQCQILCH [V19C]	1.56
AFGWFRCSSCQRSWASAQKQILCH [V19K]	1.67
AFGWFRCSSCQRSWASAQSQILCH [V19S]	2.36
AFGWFRCSSCQRSWASAQAQILCH [V19A]	1.57
AFGWFRCSSCQRSWASAQHQILCH [V19H]	1.59
AFGWFRCSSCQRSWASAQQQILCH [V19Q]	1.91
AFGWFRCSSCQRSWASAQMQILCH [V19M]	3.54
AFGWFRCSSCQRSWASAQRQILCH [V19R]	2.36
AFGWFRCSSCQRSWASAQGQILCH [V19G]	2.58
AFGWFRCSSCQRSWASAQFQILCH [V19F]	3.22
AFGWFRCSSCQRSWASAQNQILCH [V19N]	3
AFGWFRCSSCQRSWASAQVQHLCH [I21H]	2.27
AFGWFRCSSCQRSWASAQVQRLCH [I21R]	1.72
AFGWFRCSSCQRSWASAQVQTLCH [I21T]	2.9
AFGWFRCSSCQRSWASAQVQFLCH [I21F]	2.39
AFGWFRCSSCQRSWASAQVQALCH [I21A]	1.68
AFGWFRCSSCQRSWASAQVQCLCH [I21C]	3.07
AFGWFRCSSCQRSWASAQVQNLCH [I21N]	1.68
AFGWFRCSSCQRSWASAQVQGLCH [I21G]	1.49
AFGWFRCSSCQRSWASAQVQQLCH [I21Q]	1.62
AFGWFRCSSCQRSWASAQVQLLCH [I21L]	2.34

Variant	protein stability index
AFGWFRCSSCQRSWASAQVQSLCH [I21S]	3.43
AFGWFRCSSCQRSWASAQVQYLCH [I21Y]	3.2
AFGWFRCSSCQRSWASAQVQWLCH [I21W]	1.37
AFGWFRCSSCQRSWASAQVQKLCH [I21K]	1.03
AFGWFRCSSCQRSWASAQVTILCH [Q20T]	1.24
AFGWFRCSSCQRSWASAQVWILCH [Q20W]	1.69
AFGWFRCSSCQRSWASAQVSILCH [Q20S]	2.84
AFGWFRCSSCQRSWASAQVAILCH [Q20A]	1.57
AFGWFRCSSCQRSWASAQVCILCH [Q20C]	2.17
AFGWFRCSSCQRSWASAQVKILCH [Q20K]	2.83
AFGWFRCSSCQRSWASAQVVILCH [Q20V]	2.08
AFGWFRCSSCQRSWASAQVDILCH [Q20D]	1.66
AFGWFRCSSCQRSWASAQVYILCH [Q20Y]	3.08
AFGWFRCSSCQRSWASAQVLILCH [Q20L]	4.4
AFGWFRCSSCQRSWASAQVIILCH [Q20I]	2.42
AFGWFRCSSCQRSWASAQVHILCH [Q20H]	2.97
AFGWFRCSSCQRSWASAQVPILCH [Q20P]	3.22
AFGWFRCSSCQRSWASAQVNILCH [Q20N]	2.4
AFGWFRCSSCQRSWASANVQILCH [Q18N]	1.71
AFGWFRCSSCQRSWASAPVQILCH [Q18P]	2.52
AFGWFRCSSCQRSWASAAVQILCH [Q18A]	2.37
AFGWFRCSSCQRSWASAHVQILCH [Q18H]	2.68
AFGWFRCSSCQRSWASAVVQILCH [Q18V]	4.68
AFGWFRCSSCQRSWASAWVQILCH [Q18W]	2.88
AFGWFRCSSCQRSWASAIVQILCH [Q18I]	2.59
AFGWFRCSSCQRSWASADVQILCH [Q18D]	2.22

Variant	protein stability index
AFGWFRCSSCQRSWASAKVQILCH [Q18K]	1.42
AFGWFRCSSCQRSWASAMVQILCH [Q18M]	3.17
AFGWFRCSSCQRSWASASVQILCH [Q18S]	2.14
AFGWFRCSSCQRSWASATVQILCH [Q18T]	1.57
AFGWFRCSSCQRSWASACVQILCH [Q18C]	3.51
AFGWFRCSSCQRSWASAQVQILCW [H24W]	1.61
AFGWFRCSSCQRSWASAQVQILCA [H24A]	1.84
AFGWFRCSSCQRSWASAQVQILCP [H24P]	3.58
AFGWFRCSSCQRSWASAQVQILCI [H24I]	3.64
AFGWFRCSSCQRSWASAQVQILCF [H24F]	3.12
AFGWFRCSSCQRSWASAQVQILCY [H24Y]	3.39
AFGWFRCSSCQRSWASAQVQILCN [H24N]	3.06
AFGWFRCSSCQRSWASAQVQILCV [H24V]	4.55
AFGWFRCSSCQRSWASAQVQILCD [H24D]	1.97
AFGWFRCSSCQRSWASAQVQILCR [H24R]	3.52
AFGWFRCSSCQRSWASAQVQILCK [H24K]	1.83
AFGWFRCSSCQRSWNSAQVQILCH [A15N]	4.46
AFGWFRCSSCQRSWYSAQVQILCH [A15Y]	2.87
AFGWFRCSSCQRSWSSAQVQILCH [A15S]	2.04
AFGWFRCSSCQRSWISAQVQILCH [A15I]	1.53
AFGWFRCSSCQRSWVSAQVQILCH [A15V]	1.07
AFGWFRCSSCQRSWWSAQVQILCH [A15W]	2.79
AFGWFRCSSCQRSWHSAQVQILCH [A15H]	1.83
AFGWFRCSSCQRSWKSAQVQILCH [A15K]	2.12

Variants of: B2
Assay: as above
Settings: c terminus: native

Variant	protein stability index
GHSGHSHHGHPSHQSHSLPNRRH [H4G]	3.39
GHSIHSHHGHPSHQSHSLPNRRH [H4I]	2.58
GHSKHSHHGHPSHQSHSLPNRRH [H4K]	2.15
GHSAHSHHGHPSHQSHSLPNRRH [H4A]	2.45
GHSQHSHHGHPSHQSHSLPNRRH [H4Q]	2.37
GHSPHSHHGHPSHQSHSLPNRRH [H4P]	3.51
GHSFHSHHGHPSHQSHSLPNRRH [H4F]	3.61
GHSDHSHHGHPSHQSHSLPNRRH [H4D]	2.31
GHSVHSHHGHPSHQSHSLPNRRH [H4V]	2.93
GHSEHSHHGHPSHQSHSLPNRRH [H4E]	2.76
GHSCHSHHGHPSHQSHSLPNRRH [H4C]	2.69
GHSYHSHHGHPSHQSHSLPNRRH [H4Y]	2.93
GHSNHSHHGHPSHQSHSLPNRRH [H4N]	4.06
GHNHHSHHGHPSHQSHSLPNRRH [S3N]	2.89
GHDHHSHHGHPSHQSHSLPNRRH [S3D]	2.29
GHVHHSHHGHPSHQSHSLPNRRH [S3V]	3.19
GHAHHSHHGHPSHQSHSLPNRRH [S3A]	3.05
GHRHHSHHGHPSHQSHSLPNRRH [S3R]	3.09
GHIHHSHHGHPSHQSHSLPNRRH [S3I]	2.2
GHYHHSHHGHPSHQSHSLPNRRH [S3Y]	3.14
GHLHHSHHGHPSHQSHSLPNRRH [S3L]	1.31

Variant	protein stability index
GHCHHSHHGHPSHQSHSLPNRRH [S3C]	3.13
GHQHHSHHGHPSHQSHSLPNRRH [S3Q]	2.63
GHWHHSHHGHPSHQSHSLPNRRH [S3W]	2.33
GHKHHSHHGHPSHQSHSLPNRRH [S3K]	2.75
GHHHHSHHGHPSHQSHSLPNRRH [S3H]	2.27
GHFHHSHHGHPSHQSHSLPNRRH [S3F]	2.38
NHSHHSHHGHPSHQSHSLPNRRH [G1N]	2.38
EHSHHSHHGHPSHQSHSLPNRRH [G1E]	2.45
DHSHHSHHGHPSHQSHSLPNRRH [G1D]	2.81
THSHHSHHGHPSHQSHSLPNRRH [G1T]	2.66
WHSHHSHHGHPSHQSHSLPNRRH [G1W]	3.55
PHSHHSHHGHPSHQSHSLPNRRH [G1P]	3.63
KHSHHSHHGHPSHQSHSLPNRRH [G1K]	2.79
QHSHHSHHGHPSHQSHSLPNRRH [G1Q]	4.66
YHSHHSHHGHPSHQSHSLPNRRH [G1Y]	2.42
MHSHHSHHGHPSHQSHSLPNRRH [G1M]	2.19
FHSHHSHHGHPSHQSHSLPNRRH [G1F]	3.19
SHSHHSHHGHPSHQSHSLPNRRH [G1S]	2.81
HHSHHSHHGHPSHQSHSLPNRRH [G1H]	2.43
IHSHHSHHGHPSHQSHSLPNRRH [G1I]	3.33
RHSHHSHHGHPSHQSHSLPNRRH [G1R]	3.44

Variant	protein stability index
AHSHHSHHGHPSHQSHSLPNRRH [G1A]	4.7
LHSHHSHHGHPSHQSHSLPNRRH [G1L]	3.98
GDSHHSHHGHPSHQSHSLPNRRH [H2D]	2.97
GFSHHSHHGHPSHQSHSLPNRRH [H2F]	3.23
GVSHHSHHGHPSHQSHSLPNRRH [H2V]	1.5
GRSHHSHHGHPSHQSHSLPNRRH [H2R]	3.13
GKSHHSHHGHPSHQSHSLPNRRH [H2K]	3.36
GNSHHSHHGHPSHQSHSLPNRRH [H2N]	3.26
GLSHHSHHGHPSHQSHSLPNRRH [H2L]	3.18
GGSHHSHHGHPSHQSHSLPNRRH [H2G]	2.22
GWSHHSHHGHPSHQSHSLPNRRH [H2W]	3
GQSHHSHHGHPSHQSHSLPNRRH [H2Q]	3.15
GASHHSHHGHPSHQSHSLPNRRH [H2A]	3.05
GSSHHSHHGHPSHQSHSLPNRRH [H2S]	3.15
GMSHHSHHGHPSHQSHSLPNRRH [H2M]	3.72
GPSHHSHHGHPSHQSHSLPNRRH [H2P]	1.89
GESHHSHHGHPSHQSHSLPNRRH [H2E]	2.36
GTSHHSHHGHPSHQSHSLPNRRH [H2T]	3.56
GYSHHSHHGHPSHQSHSLPNRRH [H2Y]	2.31
GHSHASHHGHPSHQSHSLPNRRH [H5A]	2.92
